To fix the notation:
B1: Sarcolemmal membrane-associated protein (Homo sapiens), Q14BN4 (parent)
chain: MPSALAIFTCRPNSHPFQERHVYLDEPIKIGRSVARCRPAQNNATFDCKVLSRNHALVWFDHKTGKFYLQDTKSSNGTFINSQRLSRGSEESPPCEILSGDIIQFGVDVTENTRKVTHGCIVSTIKLFLPDGMEARLRSDVIHAPLPSPVDKVAANTPSMYSQELFQLSQYLQEALHREQMLEQKLATLQRLLAITQEASDTSWQALIDEDRLLSRLEVMGNQLQACSKNQTEDSLRKELIALQEDKHNYETTAKESLRRVLQEKIEVVRKLSEVERSLSNTEDECTHLKEMNERTQEELRELANKYNGAVNEIKDLSDKLKVAEGKQEEIQQKGQAEKKELQHKIDEMEEKEQELQAKIEALQADNDFTNERLTALQVRLEHLQEKTLKECSSLEHLLSKSGGDCTFIHQFIECQKKLIVEGHLTKAVEETKLSKENQTRAKESDFSDTLSPSKEKSSDDTTDAQMDEQDLNEPLAKVSLLKDDLQGAQSEIEAKQEIQHLRKELIEAQELARTSKQKCFELQALLEEERKAYRNQVEESTKQIQVLQAQLQRLHIDTENLREEKDSEITSTRDELLSARDEILLLHQAAAKVASERDTDIASLQEELKKVRAELERWRKAASEYEKEITSLQNSFQLRCQQCEDQQREEATRLQGELEKLRKEWNALETECHSLKRENVLLSSELQRQEKELHNSQKQSLELTSDLSILQMSRKELENQVGSLKEQHLRDSADLKTLLSKAENQAKDVQKEYEKTQTVLSELKLKFEMTEQEKQSITDELKQCKNNLKLLREKGNNKPWPWMPMLAALVAVTAIVLYVPGLARASP
partner: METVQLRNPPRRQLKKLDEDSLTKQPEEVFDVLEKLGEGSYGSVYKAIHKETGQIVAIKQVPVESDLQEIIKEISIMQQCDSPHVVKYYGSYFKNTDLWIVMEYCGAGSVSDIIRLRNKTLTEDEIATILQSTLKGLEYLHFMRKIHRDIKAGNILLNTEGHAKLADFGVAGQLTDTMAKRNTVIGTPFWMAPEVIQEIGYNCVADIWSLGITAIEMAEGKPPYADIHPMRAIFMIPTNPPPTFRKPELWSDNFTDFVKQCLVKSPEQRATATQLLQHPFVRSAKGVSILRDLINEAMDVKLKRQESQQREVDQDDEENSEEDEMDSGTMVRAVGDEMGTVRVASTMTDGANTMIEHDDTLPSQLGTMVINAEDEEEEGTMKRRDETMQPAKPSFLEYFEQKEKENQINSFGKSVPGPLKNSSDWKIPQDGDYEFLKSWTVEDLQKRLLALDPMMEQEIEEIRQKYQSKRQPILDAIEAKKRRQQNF
B2: Sarcolemmal membrane-associated protein (Homo sapiens), Q14BN4 (parent)
chain: B1 chain
partner: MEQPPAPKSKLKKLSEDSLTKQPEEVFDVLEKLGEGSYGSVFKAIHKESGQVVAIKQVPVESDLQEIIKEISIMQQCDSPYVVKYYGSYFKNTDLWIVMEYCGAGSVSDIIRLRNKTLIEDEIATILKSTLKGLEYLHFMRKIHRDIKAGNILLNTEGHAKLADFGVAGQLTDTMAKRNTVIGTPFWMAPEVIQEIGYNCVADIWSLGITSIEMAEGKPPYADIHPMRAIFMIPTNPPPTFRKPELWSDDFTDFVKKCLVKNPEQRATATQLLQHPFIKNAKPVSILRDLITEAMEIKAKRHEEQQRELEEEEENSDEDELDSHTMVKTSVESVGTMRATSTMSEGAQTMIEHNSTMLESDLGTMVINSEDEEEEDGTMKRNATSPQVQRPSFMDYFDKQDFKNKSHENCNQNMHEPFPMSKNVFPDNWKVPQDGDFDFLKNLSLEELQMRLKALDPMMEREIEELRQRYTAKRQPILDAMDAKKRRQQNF
B3: Serine/threonine-protein kinase 3 (Homo sapiens), Q13188 (parent)
chain: B2 partner
partner: B1 chain

The results in this text go back to IntAct's records for PubMed 24255178.

The variants in the first assay derive from B1. As to conditions: with stk4_human STK4, Q13043.
For R32A, the “effect of a mutation on the interaction” value is given as “decreasing interaction”.
As for H55A, the “effect of a mutation on the interaction” value is “decreasing interaction”.

Variants of B2 are the subject of another assay. As to conditions: with stk3_human STK3, Q13188.
For the variant H55A, the “effect of a mutation on the interaction” value is listed as “decreasing interaction”.
Turning to R32A, the “effect of a mutation on the interaction” value is on record as “decreasing interaction”.

In a further assay the parent is B3. As to conditions: with slmap_human SLMAP, Q14BN4.
As for MEQPPAPKSKLKKLSEDSLTKQPEEVFDVLEKLGEGSYGSVFKAIHKESGQVVAIKQVPVESDLQEIIKEISIMQQCDSPYVVKYYGSYFKNTDLWIVMEYCGAGSVSDIIRLRNKTLIEDEIATILKSTLKGLEYLHFMRKIHRDIKAGNILLNTEGHAKLADFGVAGQLTDTMAKRNAVIGTPFWMAPEVIQEIGYNCVADIWSLGITSIEMAEGKPPYADIHPMRAIFMIPTNPPPTFRKPELWSDDFTDFVKKCLVKNPEQRATATQLLQHPFIKNAKPVSILRDLITEAMEIKAKRHEEQQRELEEEEENSDEDELDSHTMVKTSVESVGTMRATSTMSEGAQTMIEHNSTMLESDLGTMVINSEDEEEEDGTMKRNATSPQVQRPSFMDYFDKQDFKNKSHENCNQNMHEPFPMSKNVFPDNWKVPQDGDFDFLKNLSLEELQMRLKALDPMMEREIEELRQRYTAKRQPILDAMDAKKRRQQNF [T180A], the “effect of a mutation on the interaction” value was “decreasing interaction”.
